How the values were obtained:
EGFR = EGFR (Homo sapiens, UniProt P00533); assay: Co-immunoprecipitation of Tinagl1 / Tinagl1 mutants with EGFR; format: binding; settings: LM2 cells with Tinagl1-HA stably expressed
Description: (§1) The functional domains of the Tinagl1 protein were mapped against EGFR, Integrin β1, and Integrin α5, and the results can be seen in Table 1, below. Specifically, it can be seen that the signal peptide (11) and Somatomedin B domain (12) are required to interact with EGFR, Integrin, and Integrin.
(§2) Immunoprecipitation (IP) and western blotting (WB) analysis. For an IP experiment, cells were collected in 1.5 ml EP tube when they reached to 100% confluency in 10 or 15 cm dish as indicated. 1 ml of IP lysis buffer (20 mM Tris pH7.4, 0.15 M NaCl, 1 mM EDTA, 1 mM EGTA, 1% Tx-100) with complete protease inhibitor cocktail (Roche, 14493900) was added and put on ice for 20 min. Meanwhile, culture media was 100× concentrated and mixed with the cell lysates. The samples were centrifuged, 100 μl of the supernatant was transferred to a new tube as input, and the rest was incubated with 2 μg of IgG, anti-HA, anti-Myc, anti-Integrin subunit β1, anti-Integrin subunit α5 or anti-EGFR (as indicated in each experiment) overnight at 4° C. (recombinant proteins may be added at this step as indicated in each experiment). 30 μL of protein A/G agarose beads (Santa Cruz, sc-2003) was then added in each sample for another 2 hours at 4° C. the next day. The beads were then washed for 5 times with IP lysis buffer. […] The IP samples were washed with PBS and analyzed with WB. […]

Integrin β1 = Integrin β1 (Homo sapiens, UniProt P05556); assay: Co-immunoprecipitation of Tinagl1 / Tinagl1 mutants with integrin β1 subunit; format: binding; settings: LM2 cells with Tinagl1-HA stably expressed
Description: as §1, §2

Integrin α5 = Integrin α5 (Homo sapiens, UniProt P05556+P08648); assay: Co-immunoprecipitation of Tinagl1 / Tinagl1 mutants with integrin α5 subunit; format: binding; settings: LM2 cells expressing Tinagl1-HA
Description: as §1, §2

integrin av subunit = target: T1, integrin av subunit (Homo sapiens, UniProt P05556+P06756); assay: Co-immunoprecipitation of Tinagl1 with integrin av subunit; format: binding; settings: LM2 cells expressing Tinagl1-HA
T1 construct: endogenous in cells; host or cells: LM2 cells stably expressing Tinagl1-HA
Description: FIGS. 9A and 9B FIGS. 8E and 8F are images of WB analyses where LM2 cells expressing Tinagl1-HA stably were lysed and IP with IgG or anti-HA antibodies, then the IP samples were subjected to WB analysis with indicated antibodies to detect the interaction with integrin α5 subunit (9A) and integrin av subunit (9B).
as §2

FAK = assay: FN- or EGF-dependent FAK phosphorylation (WB); format: cell-based
Excerpt: For WB analysis, cells were collected and lysed with IP lysis buffer described above. After boiled with SDS laemmli buffer, the samples were resolved with SDS-PAGE gel and immunoblotted with standard protocols.
FN is the major ligand for integrin α5β1 and αvβ1, and triggers integrin/FAK signal pathway after binding. FN was employed to evaluate the effects of Tinagl1 on the integrin/FAK pathway. […] Likewise, the activation of FAK by FN was attenuated in the cells overexpressing Tinagl1.

EGF = target: T2, EGF (Homo sapiens, UniProt P01133); assay: Co-immunoprecipitation of Tinagl1-HA with recombinant EGF; format: binding; settings: 5 μg r-EGF added into lysate
T2 construct: 5 μg of recombinant EGF (r-EGF) was added into the lysate
Description: FIG. 13A is an image of IP and WB assays where EK293T cells expressing Tinagl1-HA were lysed and 5 μg of recombinant EGF (r-EGF) was added into the lysate, which was then subjected to the assays.
Tinagl1 inhibits EGFR and integrin/FAK signaling pathways with distinct mechanisms. The interaction between EGFR and EGF causes conformational changes in EGFR, leading to EGFR dimerization, phosphorylation, and activation. Previous studies identified an EGFR antagonist, MIF, which competes with EGF for binding to EGFR and subsequently blocks its activation. Whether Tinagl1 inhibits EGFR activation in a similar manner was tested. […] Whether Tinagl1 and EGF compete with each other to interact with EGFR was tested. […] As a positive control, r-Tinagl1 competed with expressed Tinagl1-HA to interact with EGFR.

[1] = tested on: FN interaction with integrin subunits β1, α5, and αv; assay: Competition IP between Tinagl1, FN and integrin subunits; format: binding
FN = FN (Homo sapiens, UniProt P02751); assay: IP of Tinagl1-HA with FN; format: binding; settings: IP-Mass, IP/WB
Description: FIG. 15B is an image of WB analyses where 5 μg of FN was added into the lysate of HEK293T cells expressing Tinagl1-HA, then the lysate was immunoprecipitated with indicated antibodies, followed by WB analysis.

[2] = target: T3, mutant integrin β1 subunit (β1-M) (Homo sapiens, UniProt P05556, DEL130-240); assay: IP of Tinagl1-HA with mutant integrin β1 subunit; format: binding; settings: HEK293T cells
T3 construct: host or cells: HEK293T

Chain of FN interaction with integrin subunits β1, α5, and αv (as listed by the source): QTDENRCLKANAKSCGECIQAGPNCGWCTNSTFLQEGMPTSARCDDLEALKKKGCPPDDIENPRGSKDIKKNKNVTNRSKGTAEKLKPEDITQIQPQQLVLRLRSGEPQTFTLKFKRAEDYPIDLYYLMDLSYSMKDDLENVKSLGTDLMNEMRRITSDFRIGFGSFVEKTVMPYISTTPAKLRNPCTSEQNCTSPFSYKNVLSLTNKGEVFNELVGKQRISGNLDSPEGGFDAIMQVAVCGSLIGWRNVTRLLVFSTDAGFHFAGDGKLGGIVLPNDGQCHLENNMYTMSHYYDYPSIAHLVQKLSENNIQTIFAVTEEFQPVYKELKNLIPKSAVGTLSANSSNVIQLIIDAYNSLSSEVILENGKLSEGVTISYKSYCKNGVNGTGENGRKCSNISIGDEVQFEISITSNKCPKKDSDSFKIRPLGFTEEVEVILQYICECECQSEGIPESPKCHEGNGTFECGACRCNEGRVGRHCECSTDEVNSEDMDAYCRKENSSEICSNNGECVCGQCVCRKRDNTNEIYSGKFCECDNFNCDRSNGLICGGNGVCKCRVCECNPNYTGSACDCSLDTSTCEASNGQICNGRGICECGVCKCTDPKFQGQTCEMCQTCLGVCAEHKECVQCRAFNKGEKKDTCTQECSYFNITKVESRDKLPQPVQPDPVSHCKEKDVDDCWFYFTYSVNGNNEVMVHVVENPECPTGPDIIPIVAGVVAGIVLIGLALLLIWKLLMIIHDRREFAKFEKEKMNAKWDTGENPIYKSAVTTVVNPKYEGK
Chain of Integrin α5 (P08648 42-894 limits assumed): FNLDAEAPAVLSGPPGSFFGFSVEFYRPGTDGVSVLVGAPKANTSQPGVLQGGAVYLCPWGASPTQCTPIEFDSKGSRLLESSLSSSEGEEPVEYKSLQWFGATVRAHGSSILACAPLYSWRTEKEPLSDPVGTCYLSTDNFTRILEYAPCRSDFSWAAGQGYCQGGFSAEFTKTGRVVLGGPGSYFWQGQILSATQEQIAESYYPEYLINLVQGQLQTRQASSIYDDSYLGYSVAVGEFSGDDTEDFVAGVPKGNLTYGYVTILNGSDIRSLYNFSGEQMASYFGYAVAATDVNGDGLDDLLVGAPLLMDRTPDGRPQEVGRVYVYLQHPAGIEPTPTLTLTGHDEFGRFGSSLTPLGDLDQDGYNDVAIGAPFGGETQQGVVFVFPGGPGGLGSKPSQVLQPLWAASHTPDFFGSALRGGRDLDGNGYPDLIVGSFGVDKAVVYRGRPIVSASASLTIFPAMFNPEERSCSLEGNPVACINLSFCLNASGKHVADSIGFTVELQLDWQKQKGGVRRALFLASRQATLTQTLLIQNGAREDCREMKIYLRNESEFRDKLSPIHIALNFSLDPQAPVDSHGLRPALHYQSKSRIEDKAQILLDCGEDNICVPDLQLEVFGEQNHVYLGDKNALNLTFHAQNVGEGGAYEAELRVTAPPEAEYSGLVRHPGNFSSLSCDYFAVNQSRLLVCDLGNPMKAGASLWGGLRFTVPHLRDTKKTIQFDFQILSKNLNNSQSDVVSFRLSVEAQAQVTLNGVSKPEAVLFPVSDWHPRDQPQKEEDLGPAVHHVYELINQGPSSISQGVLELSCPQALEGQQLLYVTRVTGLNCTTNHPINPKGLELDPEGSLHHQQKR
Chain of Integrin α5 (P08648 895-1049 limits assumed): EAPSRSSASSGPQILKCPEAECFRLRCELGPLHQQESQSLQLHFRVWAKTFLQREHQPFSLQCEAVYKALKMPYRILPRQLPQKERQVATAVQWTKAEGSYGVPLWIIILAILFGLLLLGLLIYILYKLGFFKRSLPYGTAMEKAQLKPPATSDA
Chain of Integrin α5 (P05556 21-798): as the sequence (as listed by the source) above
Chain of FN (P02751 32-2477): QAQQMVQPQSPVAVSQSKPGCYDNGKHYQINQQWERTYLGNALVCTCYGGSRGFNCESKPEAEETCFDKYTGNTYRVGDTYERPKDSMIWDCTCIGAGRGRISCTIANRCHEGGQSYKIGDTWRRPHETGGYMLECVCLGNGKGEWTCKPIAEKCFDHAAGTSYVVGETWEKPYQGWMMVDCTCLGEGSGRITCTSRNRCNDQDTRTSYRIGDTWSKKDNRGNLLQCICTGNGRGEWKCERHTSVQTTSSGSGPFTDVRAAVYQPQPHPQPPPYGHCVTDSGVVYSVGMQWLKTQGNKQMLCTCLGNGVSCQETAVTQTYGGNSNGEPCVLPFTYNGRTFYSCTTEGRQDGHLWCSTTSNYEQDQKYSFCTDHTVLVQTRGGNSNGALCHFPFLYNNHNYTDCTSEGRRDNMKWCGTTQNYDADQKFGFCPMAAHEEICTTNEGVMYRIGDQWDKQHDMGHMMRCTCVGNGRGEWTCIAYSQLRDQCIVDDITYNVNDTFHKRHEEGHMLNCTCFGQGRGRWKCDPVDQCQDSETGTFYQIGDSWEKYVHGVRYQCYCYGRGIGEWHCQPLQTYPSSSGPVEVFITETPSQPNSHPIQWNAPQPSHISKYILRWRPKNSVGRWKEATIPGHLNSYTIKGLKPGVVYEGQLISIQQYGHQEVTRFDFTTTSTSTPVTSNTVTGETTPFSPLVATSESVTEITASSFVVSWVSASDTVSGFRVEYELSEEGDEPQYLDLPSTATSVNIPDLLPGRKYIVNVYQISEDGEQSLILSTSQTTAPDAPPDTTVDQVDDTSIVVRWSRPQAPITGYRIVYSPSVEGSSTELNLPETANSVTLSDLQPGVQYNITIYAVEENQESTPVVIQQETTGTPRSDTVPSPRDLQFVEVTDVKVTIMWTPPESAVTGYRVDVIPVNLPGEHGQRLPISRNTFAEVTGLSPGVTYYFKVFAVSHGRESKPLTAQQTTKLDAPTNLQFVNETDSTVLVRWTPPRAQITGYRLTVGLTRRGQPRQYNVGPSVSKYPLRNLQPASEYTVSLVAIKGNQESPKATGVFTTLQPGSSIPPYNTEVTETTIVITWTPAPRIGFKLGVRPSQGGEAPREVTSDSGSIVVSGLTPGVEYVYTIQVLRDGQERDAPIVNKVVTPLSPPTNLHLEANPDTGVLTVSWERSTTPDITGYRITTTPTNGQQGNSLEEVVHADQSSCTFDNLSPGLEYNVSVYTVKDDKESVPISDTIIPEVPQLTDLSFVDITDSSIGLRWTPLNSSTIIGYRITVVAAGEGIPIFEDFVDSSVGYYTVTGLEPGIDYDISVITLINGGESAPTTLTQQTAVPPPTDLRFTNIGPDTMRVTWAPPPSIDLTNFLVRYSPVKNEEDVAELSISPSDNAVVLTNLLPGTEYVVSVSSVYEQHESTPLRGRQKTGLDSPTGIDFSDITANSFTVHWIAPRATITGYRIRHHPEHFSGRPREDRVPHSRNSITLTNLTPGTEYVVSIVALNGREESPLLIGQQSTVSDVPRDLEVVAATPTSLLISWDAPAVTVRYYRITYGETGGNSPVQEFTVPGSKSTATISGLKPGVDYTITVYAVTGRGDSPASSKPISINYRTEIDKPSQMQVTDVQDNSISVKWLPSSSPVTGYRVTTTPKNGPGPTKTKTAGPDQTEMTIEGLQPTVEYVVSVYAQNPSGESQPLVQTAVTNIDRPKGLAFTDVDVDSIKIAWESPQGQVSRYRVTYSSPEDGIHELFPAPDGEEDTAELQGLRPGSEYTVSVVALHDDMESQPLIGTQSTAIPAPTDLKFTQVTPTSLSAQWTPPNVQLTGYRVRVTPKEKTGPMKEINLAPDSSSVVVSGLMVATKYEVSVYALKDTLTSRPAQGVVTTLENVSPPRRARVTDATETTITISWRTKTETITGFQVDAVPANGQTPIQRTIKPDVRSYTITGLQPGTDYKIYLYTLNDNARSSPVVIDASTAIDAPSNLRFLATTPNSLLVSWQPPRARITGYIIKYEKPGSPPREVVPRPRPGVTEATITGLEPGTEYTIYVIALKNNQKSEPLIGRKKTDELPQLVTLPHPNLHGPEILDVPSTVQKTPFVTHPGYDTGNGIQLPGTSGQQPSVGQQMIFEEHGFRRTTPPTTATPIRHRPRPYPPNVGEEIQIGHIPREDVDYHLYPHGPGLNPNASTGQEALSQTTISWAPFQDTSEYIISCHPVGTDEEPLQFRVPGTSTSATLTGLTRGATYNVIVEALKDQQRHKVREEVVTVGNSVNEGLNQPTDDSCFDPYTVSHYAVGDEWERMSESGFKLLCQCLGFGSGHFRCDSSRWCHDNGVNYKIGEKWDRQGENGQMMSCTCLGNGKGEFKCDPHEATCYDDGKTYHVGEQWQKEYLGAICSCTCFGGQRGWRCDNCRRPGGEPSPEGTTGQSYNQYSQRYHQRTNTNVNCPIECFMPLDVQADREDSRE
Chain of Integrin β1 (P05556 21-798): as the sequence (as listed by the source) above
Chain of Integrin β1 (P08648 42-894 partner limits assumed): as the sequence (P08648 42-894 limits assumed) above
Chain of Integrin β1 (P08648 895-1049 partner limits assumed): as the sequence (P08648 895-1049 limits assumed) above
T2 sequence (P01133 971-1023 limits assumed, species assumed): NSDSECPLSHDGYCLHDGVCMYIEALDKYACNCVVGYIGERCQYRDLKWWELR

B1: Tinagl1: Tubulointerstitial nephritis antigen like 1, secreted extracellular protein; in IP experiments expressed with C-terminal HA tag (protein, listed as Homo sapiens)
chain: MWRCPLGLLLLLPLAGHLALGAQQGRGRRELAPGLHLRGIRDAGGRYCQEQDLCCRGRADDCALPYLGAICYCDLFCNRTVSDCCPDFWDFCLGVPPPFPPIQGCMHGGRIYPVLGTYWDNCNRCTCQENRQWQCDQEPCLVDPDMIKAINQGNYGWQAGNHSAFWGMTLDEGIRYRLGTIRPSSSVMNMHEIYTVLNPGEVLPTAFEASEKWPNLIHEPLDQGNCAGSWAFSTAAVASDRVSIHSLGHMTPVLSPQNLLSCDTHQQQGCRGGRLDGAWWFLRRRGVVSDHCYPFSGRERDEAGPAPPCMMHSRAMGRGKRQATAHCPNSYVNNNDIYQVTPVYRLGSNDKEIMKELMENGPVQALMEVHEDFFLYKGGIYSHTPVSLGRPERYRRHGTHSVKITGWGEETLPDGRTLKYWTAANSWGPAWGERGHFRIVRGVNECDIESFVLGVWGRVGMEDMGHH
modifications: C-terminal HA tag in IP
notes: Tubulointerstitial nephritis antigen like 1, secreted extracellular protein; in IP experiments expressed with C-terminal HA tag
interaction with EGFR (co-IP) (EGFR): confirmed the interaction | interaction with integrin β1 subunit (co-IP) (Integrin β1): confirmed the interaction | interaction with integrin α5 subunit (co-IP) (Integrin α5): strongly interacted | interaction with integrin av subunit (co-IP) (integrin av subunit): strongly interacted | EGF-induced FAK phosphorylation (Tyr925) (FAK): blocks this specific effect of EGF on FAK activation | interaction between Tinagl1 and EGF (EGF): failed to detect any interaction | interaction of subunits α5 or av with FN [1]: did not compete | interaction of FN with integrin β1 subunit ([1]; tested at 1, 2.5, and 5 μg): competitively reduced | interaction with FN (FN): interacted with FN | interaction with mutant β1 subunit (deletion of aa 130-240) [2]: cannot interact

From patent US20210379147A1, “METHOD AND SYSTEM FOR TREATING CANCER UTILIZING TINAGL1” (The Trustees of Princeton University, priority 2018, published 2021)
